PMC9482650, “Quantitative fragmentomics allow affinity mapping of interactomes” (Nature Communications, 2022)

What was measured:
Assay in all cases: holdup assay
Set-up in all cases: key: below the threshold = too weak to quantify, mostly under pKd 3.1 to 4
AHNAK1, Q09666 = target: AHNAK1, Q09666
APBA2_1, Q99767 = target: T1, APBA2_1, Q99767
T1 sequence (Q99767 563-664, limits assumed, looked up): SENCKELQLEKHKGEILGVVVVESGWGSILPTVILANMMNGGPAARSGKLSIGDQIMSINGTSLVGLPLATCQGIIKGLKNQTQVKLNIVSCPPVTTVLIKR

DFNB31_3, Q9P202 = target: T2, DFNB31_3, Q9P202
T2 sequence (Q9P202 811-907, limits assumed, looked up): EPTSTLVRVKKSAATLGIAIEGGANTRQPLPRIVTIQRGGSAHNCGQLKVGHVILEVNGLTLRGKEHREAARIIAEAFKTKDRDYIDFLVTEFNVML

DLG1_2, Q12959 = target: DLG1_2, Q12959
DLG1_3, Q12959 = target: DLG1_3, Q12959
DLG3_1, Q92796 = target: T3, DLG3_1, Q92796
T3 sequence (Q92796 125-227, limits assumed, looked up): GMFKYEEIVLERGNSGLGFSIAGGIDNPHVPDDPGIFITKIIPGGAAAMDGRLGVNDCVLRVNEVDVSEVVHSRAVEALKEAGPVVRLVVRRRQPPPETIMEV

GORASP1, Q9BQQ3 = target: GORASP1, Q9BQQ3
HTRA3, P83110 = target: T4, HTRA3, P83110
T4 sequence (P83110 354-453, limits assumed, looked up): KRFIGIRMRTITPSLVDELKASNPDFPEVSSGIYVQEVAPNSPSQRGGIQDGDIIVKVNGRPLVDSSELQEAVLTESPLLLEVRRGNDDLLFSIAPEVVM

Inadl_2, Q8NI35 = target: Inadl_2, Q8NI35
Inadl_9, Q8NI35 = target: Inadl_9, Q8NI35
LDB3, O75112 = target: LDB3, O75112
LNX1_2, Q8TBB1 = target: LNX1_2, Q8TBB1
LNX2_2, Q8N448 = target: T5, LNX2_2, Q8N448
T5 sequence (Q8N448 334-432, limits assumed, looked up): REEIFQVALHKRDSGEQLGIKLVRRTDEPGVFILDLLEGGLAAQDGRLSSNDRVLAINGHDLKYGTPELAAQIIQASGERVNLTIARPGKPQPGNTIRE

MAGI1_2, Q96QZ7 = target: MAGI1_2, Q96QZ7
MPDZ_10, O75970 = target: T6, MPDZ_10, O75970
T6 sequence (O75970 1624-1722, limits assumed, looked up): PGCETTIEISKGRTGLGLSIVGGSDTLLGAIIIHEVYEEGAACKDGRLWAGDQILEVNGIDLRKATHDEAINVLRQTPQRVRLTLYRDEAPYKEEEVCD

MPP6, Q9NZW5 = target: T7, MPP6, Q9NZW5
T7 sequence (Q9NZW5 125-219, limits assumed, looked up): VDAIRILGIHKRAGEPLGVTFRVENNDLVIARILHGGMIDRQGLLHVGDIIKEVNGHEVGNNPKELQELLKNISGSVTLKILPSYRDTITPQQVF

NHERF3_1, Q5T2W1 = target: T8, NHERF3_1, Q5T2W1
T8 sequence (Q5T2W1 4-100, limits assumed, looked up): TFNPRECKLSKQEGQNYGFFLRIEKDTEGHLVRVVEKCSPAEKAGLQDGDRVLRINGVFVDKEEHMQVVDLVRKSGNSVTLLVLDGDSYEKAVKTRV

NHERF3_3, Q5T2W1 = target: T9, NHERF3_3, Q5T2W1
T9 sequence (Q5T2W1 238-333, limits assumed, looked up): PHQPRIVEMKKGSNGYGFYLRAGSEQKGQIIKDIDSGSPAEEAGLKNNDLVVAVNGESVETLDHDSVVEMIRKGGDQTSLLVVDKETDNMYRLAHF

NHERF4_1, Q86UT5-2 = target: NHERF4_1, Q86UT5-2
NOS1, P29475 = target: NOS1, P29475
PDLIM1, O00151 = target: PDLIM1, O00151
PICK1, Q9NRD5 = target: PICK1, Q9NRD5
RAPGEF6, Q8TEU7 = target: T10, RAPGEF6, Q8TEU7
T10 sequence (Q8TEU7 525-625, limits assumed, looked up): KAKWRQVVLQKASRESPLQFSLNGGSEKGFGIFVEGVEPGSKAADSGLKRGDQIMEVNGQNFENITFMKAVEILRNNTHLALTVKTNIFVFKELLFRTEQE

SCRIB_3, Q14160 = target: SCRIB_3, Q14160
SNTA1, Q13424 = target: T11, SNTA1, Q13424
T11 sequence (Q13424 82-180, limits assumed, looked up): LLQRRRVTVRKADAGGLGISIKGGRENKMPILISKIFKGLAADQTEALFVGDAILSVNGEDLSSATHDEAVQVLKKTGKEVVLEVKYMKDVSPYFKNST

TJP3_3, O95049 = target: T12, TJP3_3, O95049
T12 sequence (O95049 375-456, limits assumed, looked up): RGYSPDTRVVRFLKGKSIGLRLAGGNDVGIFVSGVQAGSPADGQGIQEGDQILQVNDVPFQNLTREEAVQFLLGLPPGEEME

[1] = plain residues with an end cap or a label only (N-terminal biotin on a linker: ado-ado)
[2] = plain residues with an end cap or a label only (N-terminal biotin on a linker: (peg)3)

Measured: pKd

Sequence of LNX1_2, Q8TBB1 (Q8TBB1 371-470): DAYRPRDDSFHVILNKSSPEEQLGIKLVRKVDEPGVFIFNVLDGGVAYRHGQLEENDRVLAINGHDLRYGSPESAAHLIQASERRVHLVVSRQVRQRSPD
Sequence of LDB3, O75112 (O75112 1-94): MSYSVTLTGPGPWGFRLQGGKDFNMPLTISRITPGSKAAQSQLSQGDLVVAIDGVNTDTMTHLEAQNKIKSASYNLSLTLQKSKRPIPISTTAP
Sequence of Inadl_9, Q8NI35 (Q8NI35 1530-1615): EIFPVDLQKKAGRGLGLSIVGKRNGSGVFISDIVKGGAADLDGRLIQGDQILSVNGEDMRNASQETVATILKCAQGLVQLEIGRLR
Sequence of GORASP1, Q9BQQ3 (Q9BQQ3 1-208): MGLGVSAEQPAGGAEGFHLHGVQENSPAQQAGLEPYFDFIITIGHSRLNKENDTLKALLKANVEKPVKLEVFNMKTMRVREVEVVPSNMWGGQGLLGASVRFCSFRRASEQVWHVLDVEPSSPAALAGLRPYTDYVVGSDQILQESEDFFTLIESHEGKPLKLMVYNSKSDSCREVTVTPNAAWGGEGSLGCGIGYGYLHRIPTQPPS
Sequence of MAGI1_2, Q96QZ7 (Q96QZ7 456-580): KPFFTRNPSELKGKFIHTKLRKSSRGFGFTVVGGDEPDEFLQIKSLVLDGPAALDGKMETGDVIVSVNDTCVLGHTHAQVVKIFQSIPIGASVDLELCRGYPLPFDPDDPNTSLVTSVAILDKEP
Sequence of SCRIB_3, Q14160 (Q14160 999-1103): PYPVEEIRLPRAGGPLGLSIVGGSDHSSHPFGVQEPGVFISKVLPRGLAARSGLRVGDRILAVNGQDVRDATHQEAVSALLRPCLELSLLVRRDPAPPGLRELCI
Sequence of NOS1, P29475 (P29475 9-101): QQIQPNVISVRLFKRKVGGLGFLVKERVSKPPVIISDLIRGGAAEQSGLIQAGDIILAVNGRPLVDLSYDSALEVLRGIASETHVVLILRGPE
Sequence of NHERF4_1, Q86UT5-2 (Q86UT5 other isoform, or with tags, fused parts or gaps): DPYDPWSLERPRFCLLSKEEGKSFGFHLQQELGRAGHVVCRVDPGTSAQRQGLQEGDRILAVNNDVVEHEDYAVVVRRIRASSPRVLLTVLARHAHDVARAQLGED
Sequence of PDLIM1, O00151 (O00151 1-87): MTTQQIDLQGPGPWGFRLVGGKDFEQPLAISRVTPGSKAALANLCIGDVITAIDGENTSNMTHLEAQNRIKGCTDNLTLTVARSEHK
Sequence of PICK1, Q9NRD5 (Q9NRD5 17-115): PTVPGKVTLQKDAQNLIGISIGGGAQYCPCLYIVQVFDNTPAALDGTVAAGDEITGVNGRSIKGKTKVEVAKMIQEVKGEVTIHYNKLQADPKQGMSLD
Sequence of DLG1_2, Q12959 (Q12959 314-412): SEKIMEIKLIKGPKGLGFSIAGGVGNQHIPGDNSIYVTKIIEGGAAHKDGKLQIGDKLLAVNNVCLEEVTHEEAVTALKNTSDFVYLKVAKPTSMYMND
Sequence of Inadl_2, Q8NI35 (Q8NI35 238-335): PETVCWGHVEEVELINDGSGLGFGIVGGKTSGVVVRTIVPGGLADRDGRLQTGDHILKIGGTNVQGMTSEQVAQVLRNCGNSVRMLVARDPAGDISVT
Sequence of AHNAK1, Q09666 (Q09666 4-100): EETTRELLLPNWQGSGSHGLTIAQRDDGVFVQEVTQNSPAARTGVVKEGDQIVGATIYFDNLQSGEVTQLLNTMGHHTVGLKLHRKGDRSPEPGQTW
Sequence of DLG1_3, Q12959 (Q12959 457-571): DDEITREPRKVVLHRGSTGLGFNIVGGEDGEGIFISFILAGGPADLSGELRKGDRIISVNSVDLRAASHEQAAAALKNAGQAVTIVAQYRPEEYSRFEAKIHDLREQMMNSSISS

RFQQRMQTHV [KIRREL1, Q96J84]
3.57: DLG3_1, Q92796; [1]
below the threshold: AHNAK1, Q09666; [1] | APBA2_1, Q99767; [1] | GORASP1, Q9BQQ3; [1] | HTRA3, P83110; [1] | Inadl_2, Q8NI35; [1] | Inadl_9, Q8NI35; [1] | LDB3, O75112; [1] | LNX1_2, Q8TBB1; [1] | MPDZ_10, O75970; [1] | MPP6, Q9NZW5; [1] | NHERF3_3, Q5T2W1; [1] | NOS1, P29475; [1] | PDLIM1, O00151; [1] | PICK1, Q9NRD5; [1] | RAPGEF6, Q8TEU7; [1] | SNTA1, Q13424; [1] | TJP3_3, O95049; [1]
5.03: NHERF3_1, Q5T2W1; [1]
3.7: NHERF4_1, Q86UT5-2; [1]
3.62: DFNB31_3, Q9P202; [1]
5.41: MAGI1_2, Q96QZ7; [1]
4.33: SCRIB_3, Q14160; [1]
4.08: LNX2_2, Q8N448; [1]
3.68: DLG1_3, Q12959; [1]
4.74: DLG1_2, Q12959; [1]

QQSMSSADSTQA [SARS-Cov2-N, P0DTC9]
below the threshold: AHNAK1, Q09666; [2] | APBA2_1, Q99767; [2] | DFNB31_3, Q9P202; [2] | DLG1_2, Q12959; [2] | DLG1_3, Q12959; [2] | DLG3_1, Q92796; [2] | GORASP1, Q9BQQ3; [2] | HTRA3, P83110; [2] | Inadl_2, Q8NI35; [2] | Inadl_9, Q8NI35; [2] | LDB3, O75112; [2] | LNX1_2, Q8TBB1; [2] | LNX2_2, Q8N448; [2] | MAGI1_2, Q96QZ7; [2] | MPDZ_10, O75970; [2] | MPP6, Q9NZW5; [2] | NHERF3_1, Q5T2W1; [2] | NHERF3_3, Q5T2W1; [2] | NHERF4_1, Q86UT5-2; [2] | NOS1, P29475; [2] | PDLIM1, O00151; [2] | PICK1, Q9NRD5; [2] | RAPGEF6, Q8TEU7; [2] | SCRIB_3, Q14160; [2] | SNTA1, Q13424; [2] | TJP3_3, O95049; [2]

EDPRVEVTQF [SLC22A9, Q8IVM8]
3.84: DFNB31_3, Q9P202; [1]
4.3: NHERF4_1, Q86UT5-2; [1]
3.63: NOS1, P29475; [1]
below the threshold: AHNAK1, Q09666; [1] | APBA2_1, Q99767; [1] | DLG1_2, Q12959; [1] | DLG1_3, Q12959; [1] | DLG3_1, Q92796; [1] | GORASP1, Q9BQQ3; [1] | HTRA3, P83110; [1] | Inadl_2, Q8NI35; [1] | Inadl_9, Q8NI35; [1] | LDB3, O75112; [1] | LNX1_2, Q8TBB1; [1] | LNX2_2, Q8N448; [1] | MAGI1_2, Q96QZ7; [1] | MPDZ_10, O75970; [1] | MPP6, Q9NZW5; [1] | NHERF3_3, Q5T2W1; [1] | PDLIM1, O00151; [1] | PICK1, Q9NRD5; [1] | RAPGEF6, Q8TEU7; [1] | SNTA1, Q13424; [1] | TJP3_3, O95049; [1]
4.58: NHERF3_1, Q5T2W1; [1]
3.66: SCRIB_3, Q14160; [1]
